Patent US20230242671A1 (Eli Lilly, published 2023)

How the values were obtained:
Protein A = target: T1, Protein A (UniProt P38507 37-327, biotin (site not stated)); assay: ELISA, antibody titrated on goat anti-human-kappa, Biotin-Protein A at 0.5 ug/ml
T1 construct: Reagent; also called Biotin-Protein A; Protein A ligand
Description: Binding of the heavy chain Fc region formats of Table 1b for exemplified IgG heteromabs to Protein A ligand may be assessed via ELISA. Briefly, 96-well flat bottom Elisa plates are coated with 2 ug/mL goat anti-human-kappa protein at 100 ul/well and incubated overnight at 4° C. The following day, plates are washed 3× with wash buffer 0.05% PBS-Tween 20 (PBS-T)) and blocked for 1 hr with blocking buffer (casein, 200 µL/well) at room temperature (RT). Plates are washed 3× with wash buffer, and binding proteins (as shown in Table 4) are added to individual wells at 10 μg/mL and serially diluted 1:3, at a volume of 100 uL/well in PBS-T. Plates are incubated at RT for 1 hr, and washed 3× with wash buffer. Biotin-Protein A at 0.5 ug/ml is added at 100 uL/well and plates are incubated for 1 hr at RT, washed 3×, and 100 uL/well of streptavidin labeled alkaline phosphatase (SA-AP) is added to each well. Plates are incubated 30 min at RT. Plates are then washed 3×, and 100 uL/well of p-Nitrophenyl Phosphate, Disodium Salt (PNAP)(Thermo Fisher Scientific) substrate is added. Reactions are stopped and optical density is measured using a colorimetric microplate reader set to 405 nm.

[1] = target: T2, CaptureSelect Kappa XL ligand; assay: CaptureSelect Kappa XL affinity column after Protein A
T2 construct: also called Biotin-KappaXL; Kappa XL column
Description: Multispecific binding proteins of the present disclosure, in clarified medium or recovered from Protein A purification, may be subjected to a second purification step using a CaptureSelect™ Kappa XL (Thermo Fisher Cat. #494321001) pre-packed affinity column. Briefly, multispecific binding proteins of the present disclosure recovered from Protein A purification are subjected to a Kappa XL affinity column which has been equilibrated with a compatible buffer, such as phosphate buffered saline (PBS) at pH 7.4. The column is then washed to remove nonspecific binding components. The bound multispecific binding protein is eluted, for example, by pH gradient (such as 20 mM Tris buffer pH 7.0 to 10 mM sodium citrate buffer pH 3.0). Binding protein fractions are detected, such as by UV absorbance or SDS-PAGE, and then are pooled.
Percent flow through (% F T) and percent elution of exemplified heteromabs of the present disclosure following kappa XL column purification essentially as described herein is assessed. Briefly, various antibody formats (as set forth in Table 3) are subjected to Kappa XL column. Flow through material is considered to comprise of impurities, such as homodimers, or misassembled antibodies, whereas the Kappa XL ligand bound material (elution material) is considered to be the correctly assembled bispecific antibody.

[2] = target: T2, CaptureSelect Kappa XL ligand; assay: ELISA, antibody titrated on goat anti-human-IgG, Biotin-KappaXL at 1 ug/ml
Description: Binding of the light chain Fab region formats of Table 1a for exemplified IgG hetermabs to Kappa XL ligand may be assessed via ELISA. Briefly, 96-well flat bottom ELISA plates are coated with 2 ug/mL goat anti-human-IgG protein at 100 ul/well and incubated overnight at 4° C. The following day, plates are washed 3× with wash buffer (0.05% PBS-Tween 20) and blocked for 1 hr with blocking buffer (casein, 200 μL/well) at room temperature (RT). Plates are washed 3× with wash buffer, and binding proteins (as shown in Table 5) are added at 10 μg/mL and serially diluted at 1:3 at 100 uL/well in DPBS (Dulbecco's HyClone). Plates are incubated at RT for 1 hr, are washed 3× with wash buffer and Biotin-KappaXL is added at 1 ug/ml at 100 uL/well. Plates are then incubated for 1 hr at RT, washed 3×, and 100 uL/well of SA-AP is added to each well and incubated 30 min at RT. Plates are then washed 3×, and 100 uL/well PNAP substrate is added. Reactions are stopped and the optical density is measured using a colorimetric microplate reader set to 405 nm.

B1: cMet-BAH10 parental IgG1 heteromab (bispecific antibody)
heavy 1: EVQLVESGGGLVQPGGSLRLSCAASGYTFTSYWLHWVRKAPGKGLEWVGMIDPSNSDTRFNPEFKDRFTISADTSKNTAYLQMNSLRAEDTAVYYCATYRSYVTPLDYWGQGTLVTVSSASTKGPSVFPLAPSSKSTSGGTAALGCLVKDYFPEPVTVSWNSGALTSGVATGPAVLQSSGLYSLSSVVTVPSSSLGTQTYICNVNHKPSNTKVDKKVEPKSCDKTHTCPPCPAPEAAGGPSVFLFPPKPKDTLMISRTPEVTCVVVDVSHEDPEVKFNWYVDGVEVHNAKTKPREEQYNSTYRVVSVLTVLHQDWLNGKEYKCKVSNKALPAPIEKTISKAKGQPREPQVYTLPPSREEMTDNQVSLTCLVKGFYPSDIAVEWESNGQPENNYKTTPPVLMSDGSFFLASKLTVDKSRWQQGNVFSCSVMHEALHNHYTQKSLSLSPGK
light 1: RIQMTQSPSSLSASVGDRVTITCKSSQSLLYTSSQKNYLAWYQDKPGKAPKLLIYWASTRESGVPSRFSGSGSGTDFTLTISSLQPEDFATYYCQQYYAYPWTFGQGTKVEIKRTVAAPSVFIFPPSDEQLKSGTASVVCYLNNFYPREAKVQWKVDNALQSGNSQESVTEQDSKDSTYSLWSTLTLSKADYEKHKVYACEVTHQGLSSPVTKSFNRGEC
heavy 2: QVQLVQSGAEVKKPGSSVKVSCKASGYTFTTYYLHWVRYAPGQGLEWMGWIYPGNVHAQYNEKFKGRVTITADKSTSTAYMELSSLRSEDTAVYYCARSWEGFPYWGRGTTVTVSSASTKGPSVFPLAPCSKSTSGGTAALGCLVKDYFPEPVTVSWNSGALTSGVHTFPAVLQSSGLYSLSSVVTVPSSSLGTQTYICNVNHKPSNTKVDKKVEPDSGDKTHTCPPCPAPEAAGGPSVFLFPPKPKDTLMISRTPEVTCVVVDVSHEDPEVKFNWYVDGVEVHNAKTKPREEQYNSTYRVVSVLTVLHQDWLNGKEYKCKVSNKALPAPIEKTISKAKGQPRRPRVYTLPPSREEMTKNQVSLVCLVKGFYPSDIAVEWESNGQPENNYKTTPPVLDSDGSFFLYSVLTVDKSRWQQGNVFSCSVMHEALHNHYTQKSLSLSPGK
light 2: DIQMTQSPSSLSASVGDRVTITCKASQNVGINVAWYQRKPGDAPKSLISSASYRYSGVPSRFSGSGSGTDFTLTISSLQPEDFATYFCQQYDTYPFTFGQGTKVEIKRTVAAPSVFIFPPSKEQLKSGTASVVCLLNNFYPREAKVQWKVDNALQSGNSQESVTEQDSKDSTYSLSSTLTLSKADYEKHKVYACEVTHQGLSSPVTKSFNRGEC
notes: control; also called cMet-BAH10 IgG1 heteromab; cMet-BAH10 IgG heteromab
B1 was tested, and the EC50 (Protein A) was 480 pM, the “% Elution” value [1] was 94.5% and the “% Flow Through (FT)” value [1] was 5.5%. The EC50 [2] was 570 pM.
